B1: M-Q8WUD6 (protein, UniProt Q8WUD6 2-406, looked up)
Cholinephosphotransferase 1: AAGAGAGSAPRWLRALSEPLSAAQLRRLEEHRYSAAGVSLLEPPLQLYWTWLLQWIPLWMAPNSITLLGLAVNVVTTLVLISYCPTATEEAPYWTYLLCALGLFIYQSLDAIDGKQARRTNSCSPLGELFDHGCDSLSTVFMAVGASIAARLGTYPDWFFFCSFIGMFVFYCAHWQTYVSGMLRFGKVDVTEIQIALVIVFVLSAFGGATMWDYTIPILEIKLKILPVLGFLGGVIFSCSNYFHVILHGGVGKNGSTIAGTSVLSPGLHIGLIIILAIMIYKKSATDVFEKHPCLYILMFGCVFAKVSQKLVVAHMTKSELYLQDTVFLGPGLLFLDQYFNNFIDEYVVLWMAMVISSFDMVIYFSALCLQISRHLHLNIFKTACHQAPEQVQVLSSKSHQNNMD
B2: M-Q96ER3 (protein, UniProt Q96ER3 1-474, looked up)
Protein SAAL1: MDRNPSPPPPGRDKEEEEEVAGGDCIGSTVYSKHWLFGVLSGLIQIVSPENTKSSSDDEEQLTELDEEMENEICRVWDMSMDEDVALFLQEFNAPDIFMGVLAKSKCPRLREICVGILGNMACFQEICVSISSDKNLGQVLLHCLYDSDPPTLLETSRLLLTCLSQAEVASVWVERIQEHPAIYDSICFIMSSSTNVDLLVKVGEVVDKLFDLDEKLMLEWVRNGAAQPLDQPQEESEEQPVFRLVPCILEAAKQVRSENPEWLDVYMHILQLLTTVDDGIQAIVHCPDTGKDIWNLLFDLVCHEFCQSDDPPIILQEQKTVLASVFSVLSAIYASQTEQEYLKIEKVDLPLIDSLIRVLQNMEQCQKKPENSAESNTEETKRTDLTQDDFHLKILKDILCEFLSNIFQALTKETVAQGVKEGQLSKQKCSSAFQNLLPFYSPVVEDFIKILREVDKALADDLEKNFPSLKVQT
modifications: host interactor of M
B3: M-Q8TBF5 (protein, UniProt Q8TBF5 22-258, looked up)
GPI …: LTRGPAAAFTAARSDAGIRAMCSEIILRQEVLKDGFHRDLLIKVKFGESIEDLHTCRLLIKQDIPAGLYVDPYELASLRERNITEAVMVSENFDIEAPNYLSKESEVLIYARRDSQCIDCFQAFLPVHCRYHRPHSEDGEASIVVNNPDLLMFCDQEFPILKCWAHSEVAAPCALENEDICQWNKMKYKSVYKNVILQVPVGLTVHTSLVCSVTLLITILCSTLILVAVFKYGHFSL
modifications: prey of SARS-CoV-2 M
B4: M-Q8TCJ2 (protein, UniProt Q8TCJ2 2-826, looked up)
Dolichyl-diphosphooligosacchar …: AEPSAPESKHKSSLNSSPWSGLMALGNSRHGHHGPGAQCAHKAAGGAAPPKPAPAGLSGGLSQPAGWQSLLSFTILFLAWLAGFSSRLFAVIRFESIIHEFDPWFNYRSTHHLASHGFYEFLNWFDERAWYPLGRIVGGTVYPGLMITAGLIHWILNTLNITVHIRDVCVFLAPTFSGLTSISTFLLTRELWNQGAGLLAACFIAIVPGYISRSVAGSFDNEGIAIFALQFTYYLWVKSVKTGSVFWTMCCCLSYFYMVSAWGGYVFIINLIPLHVFVLLLMQRYSKRVYIAYSTFYIVGLILSMQIPFVGFQPIRTSEHMAAAGVFALLQAYAFLQYLRDRLTKQEFQTLFFLGVSLAAGAVFLSVIYLTYTGYIAPWSGRFYSLWDTGYAKIHIPIIASVSEHQPTTWVSFFFDLHILVCTFPAGLWFCIKNINDERVFVALYAISAVYFAGVMVRLMLTLTPVVCMLSAIAFSNVFEHYLGDDMKRENPPVEDSSDEDDKRNQGNLYDKAGKVRKHATEQEKTEEGLGPNIKSIVTMLMLMLLMMFAVHCTWVTSNAYSSPSVVLASYNHDGTRNILDDFREAYFWLRQNTDEHARVMSWWDYGYQIAGMANRTTLVDNNTWNNSHIALVGKAMSSNETAAYKIMRTLDVDYVLVIFGGVIGYSGDDINKFLWMVRIAEGEHPKDIRESDYFTPQGEFRVDKAGSPTLLNCLMYKMSYYRFGEMQLDFRTPPGFDRTRNAEIGNKDIKFKHLEEAFTSEHWLVRIYKVKAPDNRETLDHKPRVTNIFPKQKYLSKKTTKRKRGYIKNKLVFKKGKKISKKTV
B5: M-Q96HR9 (protein, UniProt Q96HR9 1-211, looked up)
Receptor expression-enhancing …: MDGLRQRVEHFLEQRNLVTEVLGALEAKTGVEKRYLAAGAVTLLSLYLLFGYGASLLCNLIGFVYPAYASIKAIESPSKDDDTVWLTYWVVYALFGLAEFFSDLLLSWFPFYYVGKCAFLLFCMAPRPWNGALMLYQRVVRPLFLRHHGAVDRIMNDLSGRALDAAAGITRNVLQVLARSRAGITPVAVAGPSTPLEADLKPSQTPQPKDK
B6: M-Q96AA3 (protein, UniProt Q96AA3 1-541, looked up)
Man(5)GlcNAc(2)-PP-dolichol …: MGSQEVLGHAARLASSGLLLQVLFRLITFVLNAFILRFLSKEIVGVVNVRLTLLYSTTLFLAREAFRRACLSGGTQRDWSQTLNLLWLTVPLGVFWSLFLGWIWLQLLEVPDPNVVPHYATGVVLFGLSAVVELLGEPFWVLAQAHMFVKLKVIAESLSVILKSVLTAFLVLWLPHWGLYIFSLAQLFYTTVLVLCYVIYFTKLLGSPESTKLQTLPVSRITDLLPNITRNGAFINWKEAKLTWSFFKQSFLKQILTEGERYVMTFLNVLNFGDQGVYDIVNNLGSLVARLIFQPIEESFYIFFAKVLERGKDATLQKQEDVAVAAAVLESLLKLALLAGLTITVFGFAYSQLALDIYGGTMLSSGSGPVLLRSYCLYVLLLAINGVTECFTFAAMSKEEVDRYNFVMLALSSSFLVLSYLLTRWCGSVGFILANCFNMGIRITQSLCFIHRYYRRSPHRPLAGLHLSPVLLGTFALSGGVTAVSEVFLCCEQGWPARLAHIAVGAFCLGATLGTAFLTETKLIHFLRTQLGVPRRTDKMT
modifications: interaction partner of viral M protein

In the experiment the test system is SARS-CoV-1, MERS-CoV and SARS-CoV-2 proteins in HEK293T cells. Further details: species or system human.
Turning to B1, the MIST_MERS was 0, the MIST_SARS1 is listed as 0.8979, the MIST_SARS2 worked out at 0.636 and the Saint_MERS was found to be 0. Further, the Saint_SARS1 was 0.98 and the Saint_SARS2 is on record as 0.65.

As to B2, the MIST_MERS is given as 0, the MIST_SARS1 is 0.3763, the MIST_SARS2 worked out at 0.7695 and the Saint_MERS was determined as 0. For the same molecule, the Saint_SARS1 was 0.98 and the Saint_SARS2 is 1.

B3 gave an MIST_MERS of 0, an MIST_SARS1 of 0.9901, an MIST_SARS2 of 0.4273 and a Saint_MERS of 0. This molecule also returned a Saint_SARS1 of 0.99 and a Saint_SARS2 of 0.33.

In turn, B4 came in with an MIST_MERS of 0, an MIST_SARS1 of 0.991, an MIST_SARS2 of 0.01779 and a Saint_MERS of 0. The molecule further displayed a Saint_SARS1 of 1 and a Saint_SARS2 of 0.

B5 had an MIST_MERS of 0, an MIST_SARS1 of 0, an MIST_SARS2 of 0.9557 and a Saint_MERS of 0. This molecule also had a Saint_SARS1 of 0 and a Saint_SARS2 of 0.65.

In turn, B6 registered an MIST_MERS of 0, an MIST_SARS1 of 0.809, an MIST_SARS2 of 0.5513 and a Saint_MERS of 0. The molecule further had a Saint_SARS1 of 0.95 and a Saint_SARS2 of 0.98.
